For this assay, the target named is T1, exemplary recombinant polypeptide trimer: RSV F protein peptide (residues 1 to 520, RSV A2 strain) fused to … (respiratory syncytial virus A2 strain; …, UniProt P02452 1156-1464).
T1 construct: range 1-520;domain: C-propeptide of α1 collagen; Furin processing (F2/F1, loss of pep27) is not described for the tested protein; also called RSV F-Trimer; exemplary fusion peptide comprising an RSV F protein peptide
The experiment in a line: BLI (ForteBio Octet QKe); palivizumab 5 µg/mL on Protein A sensors, 2-fold dilutions of fusion peptide from 20 µg/mL, 1:1 model. (In general: In BLI a coated tip is dipped into the sample, and binding shifts an interference pattern.)

T1 sequence (P02452 1156-1464): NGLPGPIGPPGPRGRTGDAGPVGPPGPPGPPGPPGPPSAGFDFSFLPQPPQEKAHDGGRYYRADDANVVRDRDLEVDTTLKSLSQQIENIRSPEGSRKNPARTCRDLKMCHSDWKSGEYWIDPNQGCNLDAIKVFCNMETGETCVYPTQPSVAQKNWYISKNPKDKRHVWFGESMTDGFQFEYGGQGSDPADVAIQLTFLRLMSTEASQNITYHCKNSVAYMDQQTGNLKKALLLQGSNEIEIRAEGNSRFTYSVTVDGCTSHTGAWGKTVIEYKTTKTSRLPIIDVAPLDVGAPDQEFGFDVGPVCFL

B1: palivizumab (antibody, V domains shown)
VH: QVTLRESGPALVKPTQTLTLTCTFSGFSLSTSGMSVGWIRQPPGKALEWLADIWWDDKKDYNPSLKSRLTISKDTSKNQVVLKVTNMDPADTATYYCARSMITNWYFDVWGAGTTVTVSS
VL: DIQMTQSPSTLSASVGDRVTITCKCQLSVGYMHWYQQKPGKAPKLLIYDTSKLASGVPSRFSGSGSGTEFTLTISSLQPDDFATYYCFQGSGYPFTFGGGTKLEIK
With B1, the Kd is < 1 pM.

The term Kd denotes a measure of binding affinity in units of concentration.

(Values after patent US20230256076A1 (SICHUAN CLOVER BIOPHARMACEUTICALS, published 2023).)
